What follows are substances tested against human FcRn beta-2-microglobulin complex, biotinylated, coupled to streptavidin Sepharose (human) (UniProt P55899) (assay: FcRn affinity chromatography, pH gradient 5.5 to 8.8; unlabelled antibody).
human FcRn beta-2-microglobulin complex, biotinylated, coupled to streptavidin Sepharose (human), sequence (P55899 24-297 limits assumed, chain 1 of 2): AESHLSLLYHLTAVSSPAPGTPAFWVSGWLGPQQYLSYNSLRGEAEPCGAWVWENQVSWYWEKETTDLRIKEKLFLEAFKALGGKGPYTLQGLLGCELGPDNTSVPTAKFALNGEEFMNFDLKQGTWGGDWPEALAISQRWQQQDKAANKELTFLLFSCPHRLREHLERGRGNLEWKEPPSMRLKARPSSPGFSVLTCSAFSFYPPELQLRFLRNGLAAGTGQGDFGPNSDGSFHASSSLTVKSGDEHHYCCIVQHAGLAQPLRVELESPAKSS
human FcRn beta-2-microglobulin complex, biotinylated, coupled to streptavidin Sepharose (human), sequence (P61769 21-119 limits assumed, chain 2 of 2, further chain): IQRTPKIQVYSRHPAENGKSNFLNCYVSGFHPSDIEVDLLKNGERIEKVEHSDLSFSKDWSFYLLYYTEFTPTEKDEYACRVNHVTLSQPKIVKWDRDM

Ixekizumab, labelled with pHAb dye (antibody), sequence (HC): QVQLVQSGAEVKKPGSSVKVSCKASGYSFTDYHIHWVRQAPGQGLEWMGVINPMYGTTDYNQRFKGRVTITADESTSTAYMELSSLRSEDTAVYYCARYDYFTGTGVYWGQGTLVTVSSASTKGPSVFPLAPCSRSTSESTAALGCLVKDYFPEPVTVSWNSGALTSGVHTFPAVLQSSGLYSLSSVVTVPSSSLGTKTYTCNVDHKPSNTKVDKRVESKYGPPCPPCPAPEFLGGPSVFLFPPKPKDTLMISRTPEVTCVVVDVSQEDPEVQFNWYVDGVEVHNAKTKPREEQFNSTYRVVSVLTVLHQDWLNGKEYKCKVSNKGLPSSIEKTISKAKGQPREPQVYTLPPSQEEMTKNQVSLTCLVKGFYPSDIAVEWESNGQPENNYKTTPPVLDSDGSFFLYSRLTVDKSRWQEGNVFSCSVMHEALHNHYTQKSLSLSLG
Ixekizumab, labelled with pHAb dye (antibody), sequence (LC): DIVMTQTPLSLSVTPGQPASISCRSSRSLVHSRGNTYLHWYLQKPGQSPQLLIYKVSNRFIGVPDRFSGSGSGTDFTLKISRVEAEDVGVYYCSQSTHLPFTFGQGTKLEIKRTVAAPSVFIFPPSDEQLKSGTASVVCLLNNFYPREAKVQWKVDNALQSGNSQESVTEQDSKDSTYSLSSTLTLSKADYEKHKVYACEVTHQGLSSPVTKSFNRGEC
Avelumab, labelled with pHAb dye (antibody), sequence (HC): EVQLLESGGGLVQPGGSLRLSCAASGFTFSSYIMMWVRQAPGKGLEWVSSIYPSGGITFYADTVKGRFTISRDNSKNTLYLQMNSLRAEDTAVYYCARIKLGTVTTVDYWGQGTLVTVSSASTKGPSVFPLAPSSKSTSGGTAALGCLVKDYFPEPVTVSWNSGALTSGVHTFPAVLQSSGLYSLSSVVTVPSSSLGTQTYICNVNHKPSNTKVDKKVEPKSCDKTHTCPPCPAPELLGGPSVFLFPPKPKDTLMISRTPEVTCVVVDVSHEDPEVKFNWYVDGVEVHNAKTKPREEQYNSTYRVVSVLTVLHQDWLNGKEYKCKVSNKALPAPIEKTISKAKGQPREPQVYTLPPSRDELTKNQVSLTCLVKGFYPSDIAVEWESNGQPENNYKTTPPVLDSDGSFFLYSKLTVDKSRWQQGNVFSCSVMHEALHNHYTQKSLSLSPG
Avelumab, labelled with pHAb dye (antibody), sequence (LC): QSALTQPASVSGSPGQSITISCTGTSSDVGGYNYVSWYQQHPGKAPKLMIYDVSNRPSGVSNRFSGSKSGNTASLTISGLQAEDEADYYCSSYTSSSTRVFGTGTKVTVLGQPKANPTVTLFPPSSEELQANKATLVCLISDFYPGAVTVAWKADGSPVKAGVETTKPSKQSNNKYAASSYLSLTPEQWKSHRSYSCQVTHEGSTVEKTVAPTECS
Ustekinumab, labelled with pHAb dye (antibody), sequence (HC): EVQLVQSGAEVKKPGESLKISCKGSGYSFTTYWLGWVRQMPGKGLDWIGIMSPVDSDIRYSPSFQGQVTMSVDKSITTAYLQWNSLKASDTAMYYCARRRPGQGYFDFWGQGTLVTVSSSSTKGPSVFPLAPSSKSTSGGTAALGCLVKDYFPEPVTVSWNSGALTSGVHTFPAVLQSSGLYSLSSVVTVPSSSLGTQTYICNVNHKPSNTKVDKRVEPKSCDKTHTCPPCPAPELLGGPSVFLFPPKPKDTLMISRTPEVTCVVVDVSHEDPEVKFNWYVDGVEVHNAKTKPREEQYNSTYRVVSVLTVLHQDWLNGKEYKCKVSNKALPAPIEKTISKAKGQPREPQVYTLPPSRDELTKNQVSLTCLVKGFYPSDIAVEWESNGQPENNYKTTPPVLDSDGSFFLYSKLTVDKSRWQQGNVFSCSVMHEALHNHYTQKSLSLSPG
Ustekinumab, labelled with pHAb dye (antibody), sequence (LC): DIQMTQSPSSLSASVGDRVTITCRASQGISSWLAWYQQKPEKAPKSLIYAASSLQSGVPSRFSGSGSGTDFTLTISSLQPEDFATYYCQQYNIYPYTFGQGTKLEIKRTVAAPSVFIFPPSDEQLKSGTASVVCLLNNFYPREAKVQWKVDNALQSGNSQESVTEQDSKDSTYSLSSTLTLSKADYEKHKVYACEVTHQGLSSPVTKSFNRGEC

Point of comparison: Motavizumab-YTE (antibody), relative retention time on FcRn affinity column (relative to anti-Her3 antibody standard) 4.52. Against it:
- Palivizumab (antibody) — lower, 0.31
- Nivolumab (antibody) — lower, 0.49
- Ofatumumab (antibody) — lower, 0.72
- Motavizumab WT (antibody) — lower, 0.5
- Avelumab (antibody) — lower, 1.27
- Ustekinumab (antibody) — lower, 0.48
- Reslizumab (antibody) — lower, 0.5
- Adalimumab (antibody) — lower, 0.93

Each substance was assayed against human FcRn beta-2-microglobulin complex, biotinylated, coupled to streptavidin Sepharose (human) (UniProt P55899) (assay: FcRn affinity chromatography, pH gradient 5.5 to 8.8; dye-labelled antibody).

Point of comparison: “Ustekinumab, labelled with pHAb dye (antibody)”, relative retention time on FcRn affinity column (relative to anti-Her3 antibody standard) 0.41. Against it:
- Motavizumab-YTE, labelled with pHAb dye (antibody) — higher, 4.88
- Ofatumumab, labelled with pHAb dye (antibody) — higher, 0.67
- Nivolumab, labelled with pHAb dye (antibody) — lower, 0.39
- Avelumab, labelled with pHAb dye (antibody) — higher, 1.25
- Adalimumab, labelled with pHAb dye (antibody) — higher, 0.84
- Motavizumab WT, labelled with pHAb dye (antibody) — higher, 0.42
- Reslizumab, labelled with pHAb dye (antibody) — the same, 0.41
- Palivizumab, labelled with pHAb dye (antibody) — lower, 0.28
- Ixekizumab, labelled with pHAb dye (antibody) — higher, 1.33
